Assay results as given in IntAct's records for PubMed 29892012.

B1: Centrosomal protein POC5 (Homo sapiens), Q8NA72 (parent)
chain: MSSDEEKYSLPVVQNDSSRGSSVSSNLQEEYEELLHYAIVTPNIEPCASQSSHPKGELVPDVRISTIHDILHSQGNNSEVRETAIEVGKGCDFHISSHSKTDESSPVLSPRKPSHPVMDFFSSHLLADSSSPATNSSHTDAHEILVSDFLVSDENLQKMENVLDLWSSGLKTNIISELSKWRLNFIDWHRMEMRKEKEKHAAHLKQLCNQINELKELQKTFEISIGRKDEVISSLSHAIGKQKEKIELMRTFFHWRIGHVRARQDVYEGKLADQYYQRTLLKKVWKVWRSVVQKQWKDVVERACQARAEEVCIQISNDYEAKVAMLSGALENAKAEIQRMQHEKEHFEDSMKKAFMRGVCALNLEAMTIFQNRNDAGIDSTNNKKEEYGPGVQGKEHSAHLDPSAPPMPLPVTSPLLPSPPAAVGGASATAVPSAASMTSTRAASASSVHVPVSALGAGSAATAASEEMYVPRVVTSAQQKAGRTITARITGRCDFASKNRISSSLAIMGVSPPMSSVVVEKHHPVTVQTIPQATAAKYPRTIHPESSTSASRSLGTRSAHTQSLTSVHSIKVVD
partner: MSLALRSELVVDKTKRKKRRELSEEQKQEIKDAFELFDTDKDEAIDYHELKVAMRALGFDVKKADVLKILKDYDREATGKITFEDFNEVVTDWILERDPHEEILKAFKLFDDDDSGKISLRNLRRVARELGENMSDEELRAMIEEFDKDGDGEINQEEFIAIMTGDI
B2: E3 ubiquitin-protein ligase LNX (Homo sapiens), Q8TBB1 (parent)
chain: MNQPESANDPEPLCAVCGQAHSLEENHFYSYPEEVDDDLICHICLQALLDPLDTPCGHTYCTLCLTNFLVEKDFCPMDRKPLVLQHCKKSSILVNKLLNKLLVTCPFREHCTQVLQRCDLEHHFQTSCKGASHYGLTKDRKRRSQDGCPDGCASLTATAPSPEVSAAATISLMTDEPGLDNPAYVSSAEDGQPAISPVDSGRSNRTRARPFERSTIRSRSFKKINRALSVLRRTKSGSAVANHADQGRENSENTTAPEVFPRLYHLIPDGEITSIKINRVDPSESLSIRLVGGSETPLVHIIIQHIYRDGVIARDGRLLPGDIILKVNGMDISNVPHNYAVRLLRQPCQVLWLTVMREQKFRSRNNGQAPDAYRPRDDSFHVILNKSSPEEQLGIKLVRKVDEPGVFIFNVLDGGVAYRHGQLEENDRVLAINGHDLRYGSPESAAHLIQASERRVHLVVSRQVRQRSPDIFQEAGWNSNGSWSPGPGERSNTPKPLHPTITCHEKVVNIQKDPGESLGMTVAGGASHREWDLPIYVISVEPGGVISRDGRIKTGDILLNVDGVELTEVSRSEAVALLKRTSSSIVLKALEVKEYEPQEDCSSPAALDSNHNMAPPSDWSPSWVMWLELPRCLYNCKDIVLRRNTAGSLGFCIVGGYEEYNGNKPFFIKSIVEGTPAYNDGRIRCGDILLAVNGRSTSGMIHACLARLLKELKGRITLTIVSWPGTFL
partner: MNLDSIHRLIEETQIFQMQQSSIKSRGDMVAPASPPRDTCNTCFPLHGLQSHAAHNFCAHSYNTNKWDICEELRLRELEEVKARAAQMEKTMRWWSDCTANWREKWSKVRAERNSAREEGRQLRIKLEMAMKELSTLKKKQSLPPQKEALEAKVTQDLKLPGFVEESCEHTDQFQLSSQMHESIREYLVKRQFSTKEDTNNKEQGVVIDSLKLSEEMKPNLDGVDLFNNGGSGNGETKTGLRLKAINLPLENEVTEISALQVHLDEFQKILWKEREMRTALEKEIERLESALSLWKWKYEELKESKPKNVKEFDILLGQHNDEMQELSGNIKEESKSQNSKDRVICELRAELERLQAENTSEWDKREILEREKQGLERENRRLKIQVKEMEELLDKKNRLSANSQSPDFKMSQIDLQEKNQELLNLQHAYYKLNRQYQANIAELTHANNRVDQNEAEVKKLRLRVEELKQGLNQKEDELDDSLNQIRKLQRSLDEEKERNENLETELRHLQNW
B3: E3 ubiquitin-protein ligase LNX (Homo sapiens), Q8TBB1 (parent)
chain: B2 chain
partner: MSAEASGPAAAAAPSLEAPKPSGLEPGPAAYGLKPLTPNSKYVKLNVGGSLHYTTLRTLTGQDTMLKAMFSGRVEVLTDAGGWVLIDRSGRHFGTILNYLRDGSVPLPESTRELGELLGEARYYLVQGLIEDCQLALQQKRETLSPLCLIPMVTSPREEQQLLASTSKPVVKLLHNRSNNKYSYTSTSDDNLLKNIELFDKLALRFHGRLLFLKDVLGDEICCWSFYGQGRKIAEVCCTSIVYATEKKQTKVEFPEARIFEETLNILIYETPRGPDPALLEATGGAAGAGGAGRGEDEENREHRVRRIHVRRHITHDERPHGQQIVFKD
B4: PDZ and LIM domain protein 1 (Homo sapiens), O00151 (parent)
chain: MTTQQIDLQGPGPWGFRLVGGKDFEQPLAISRVTPGSKAALANLCIGDVITAIDGENTSNMTHLEAQNRIKGCTDNLTLTVARSEHKVWSPLVTEEGKRHPYKMNLASEPQEVLHIGSAHNRSAMPFTASPASSTTARVITNQYNNPAGLYSSENISNFNNALESKTAASGVEANSRPLDHAQPPSSLVIDKESEVYKMLQEKQELNEPPKQSTSFLVLQEILESEEKGDPNKPSGFRSVKAPVTKVAASIGNAQKLPMCDKCGTGIVGVFVKLRDRHRHPECYVCTDCGTNLKQKGHFFVEDQIYCEKHARERVTPPEGYEVVTVFPK
B5: Zyxin (Homo sapiens), Q15942 (parent)
chain: MAAPRPSPAISVSVSAPAFYAPQKKFGPVVAPKPKVNPFRPGDSEPPPAPGAQRAQMGRVGEIPPPPPEDFPLPPPPLAGDGDDAEGALGGAFPPPPPPIEESFPPAPLEEEIFPSPPPPPEEEGGPEAPIPPPPQPREKVSSIDLEIDSLSSLLDDMTKNDPFKARVSSGYVPPPVATPFSSKSSTKPAAGGTAPLPPWKSPSSSQPLPQVPAPAQSQTQFHVQPQPQPKPQVQLHVQSQTQPVSLANTQPRGPPASSPAPAPKFSPVTPKFTPVASKFSPGAPGGSGSQPNQKLGHPEALSAGTGSPQPPSFTYAQQREKPRVQEKQHPVPPPAQNQNQVRSPGAPGPLTLKEVEELEQLTQQLMQDMEHPQRQNVAVNELCGRCHQPLARAQPAVRALGQLFHIACFTCHQCAQQLQGQQFYSLEGAPYCEGCYTDTLEKCNTCGEPITDRMLRATGKAYHPHCFTCVVCARPLEGTSFIVDQANRPHCVPDYHKQYAPRCSVCSEPIMPEPGRDETVRVVALDKNFHMKCYKCEDCGKPLSIEADDNGCFPLDGHVLCRKCHTARAQT
partner: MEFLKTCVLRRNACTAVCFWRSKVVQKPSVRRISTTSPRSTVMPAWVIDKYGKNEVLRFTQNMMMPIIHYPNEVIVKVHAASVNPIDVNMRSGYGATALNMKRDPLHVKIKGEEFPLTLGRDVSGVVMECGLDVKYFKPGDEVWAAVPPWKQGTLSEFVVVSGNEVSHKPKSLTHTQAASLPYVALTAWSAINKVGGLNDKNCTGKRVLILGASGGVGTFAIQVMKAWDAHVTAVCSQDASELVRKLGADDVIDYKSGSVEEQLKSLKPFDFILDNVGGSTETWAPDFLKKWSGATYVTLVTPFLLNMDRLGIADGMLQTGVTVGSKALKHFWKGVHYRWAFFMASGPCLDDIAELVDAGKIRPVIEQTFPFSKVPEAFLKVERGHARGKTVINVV
B6: Coiled-coil alpha-helical rod protein 1 (Homo sapiens), Q8TD31 (parent)
chain: MFPPSGSTGLIPPSHFQARPLSTLPRMAPTWLSDIPLVQPPGHQDVSERRLDTQRPQVTMWERDVSSDRQEPGRRGRSWGLEGSQALSQQAEVIVRQLQELRRLEEEVRLLRETSLQQKMRLEAQAMELEALARAEKAGRAEAEGLRAALAGAEVVRKNLEEGSQRELEEVQRLHQEQLSSLTQAHEEALSSLTSKAEGLEKSLSSLETRRAGEAKELAEAQREAELLRKQLSKTQEDLEAQVTLVENLRKYVGEQVPSEVHSQTWELERQKLLETMQHLQEDRDSLHATAELLQVRVQSLTHILALQEEELTRKVQPSDSLEPEFTRKCQSLLNRWREKVFALMVQLKAQELEHSDSVKQLKGQVASLQEKVTSQSQEQAILQRSLQDKAAEVEVERMGAKGLQLELSRAQEARRRWQQQTASAEEQLRLVVNAVSSSQIWLETTMAKVEGAAAQLPSLNNRLSYAVRKVHTIRGLIARKLALAQLRQESCPLPPPVTDVSLELQQLREERNRLDAELQLSARLIQQEVGRAREQGEAERQQLSKVAQQLEQELQQTQESLASLGLQLEVARQGQQESTEEAASLRQELTQQQELYGQALQEKVAEVETRLREQLSDTERRLNEARREHAKAVVSLRQIQRRAAQEKERSQELRRLQEEARKEEGQRLARRLQELERDKNLMLATLQQEGLLSRYKQQRLLTVLPSLLDKKKSVVSSPRPPECSASAPVAAAVPTRESIKGSLSVLLDDLQDLSEAISKEEAVCQGDNLDRCSSSNPQMSS
partner: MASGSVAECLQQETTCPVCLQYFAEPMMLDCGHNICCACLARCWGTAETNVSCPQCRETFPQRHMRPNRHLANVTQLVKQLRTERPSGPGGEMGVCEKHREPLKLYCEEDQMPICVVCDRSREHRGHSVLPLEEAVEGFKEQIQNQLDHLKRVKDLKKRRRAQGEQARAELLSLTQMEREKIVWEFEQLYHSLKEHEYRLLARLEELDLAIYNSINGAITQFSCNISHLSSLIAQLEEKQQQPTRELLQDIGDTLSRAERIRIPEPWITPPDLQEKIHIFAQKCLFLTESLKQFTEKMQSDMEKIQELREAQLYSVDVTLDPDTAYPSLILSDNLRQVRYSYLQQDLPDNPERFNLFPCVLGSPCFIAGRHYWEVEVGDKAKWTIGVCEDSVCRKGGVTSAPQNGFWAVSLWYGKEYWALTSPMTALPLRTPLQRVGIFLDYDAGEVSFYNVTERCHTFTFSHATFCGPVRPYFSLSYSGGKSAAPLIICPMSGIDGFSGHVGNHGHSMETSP
B7: Signal transducing adapter molecule 1 (Homo sapiens), Q92783 (parent)
chain: MPLFATNPFDQDVEKATSEMNTAEDWGLILDICDKVGQSRTGPKDCLRSIMRRVNHKDPHVAMQALTLLGACVSNCGKIFHLEVCSRDFASEVSNVLNKGHPKVCEKLKALMVEWTDEFKNDPQLSLISAMIKNLKEQGVTFPAIGSQAAEQAKASPALVAKDPGTVANKKEEEDLAKAIELSLKEQRQQSTTLSTLYPSTSSLLTNHQHEGRKVRAIYDFEAAEDNELTFKAGEIITVLDDSDPNWWKGETHQGIGLFPSNFVTADLTAEPEMIKTEKKTVQFSDDVQVETIEPEPEPAFIDEDKMDQLLQMLQSTDPSDDQPDLPELLHLEAMCHQMGPLIDEKLEDIDRKHSELSELNVKVMEALSLYTKLMNEDPMYSMYAKLQNQPYYMQSSGVSGSQVYAGPPPSGAYLVAGNAQMSHLQSYSLPPEQLSSLSQAVVPPSANPALPSQQTQAAYPNTMVSSVQGNTYPSQAPVYSPPPAATAAAATADVTLYQNAGPNMPQVPNYNLTSSTLPQPGGSQQPPQPQQPYSQKALL
B8: Cysteine/serine-rich nuclear protein 2 (Homo sapiens), Q9H175 (parent)
chain: MDAFTGSGLKRKFDDVDVGSSVSNSDDEISSSDSADSCDSLNPPTTASFTPTSILKRQKQLRRKNVRFDQVTVYYFARRQGFTSVPSQGGSSLGMAQRHNSVRSYTLCEFAQEQEVNHREILREHLKEEKLHAKKMKLTKNGTVESVEADGLTLDDVSDEDIDVENVEVDDYFFLQPLPTKRRRALLRASGVHRIDAEEKQELRAIRLSREECGCDCRLYCDPEACACSQAGIKCQVDRMSFPCGCSRDGCGNMAGRIEFNPIRVRTHYLHTIMKLELESKRQVSRPAAPDEEPSPTASCSLTGAQGSETQDFQEFIAENETAVMHLQSAEELERLKAEEDSSGSSASLDSSIESLGVCILEEPLAVPEELCPGLTAPILIQAQLPPGSSVLCFTENSDHPTASTVNSPSYLNSGPLVYYQVEQRPVLGVKGEPGTEEGSASFPKEKDLNVFSLPVTSLVACSSTDPAALCKSEVGKTPTLEALLPEDCNPEEPENEDFHPSWSPSSLPFRTDNEEGCGMVKTSQQNEDRPPEDSSLELPLAV

Variants of: B1
Details: with cetn3_human CETN3, O15182

Variant	effect of a mutation on the interaction
M469T	with no effect

Variants of: B2
Details: with CCDC102B

Variant	effect of a mutation on the interaction
E295K	disrupting interaction strength

Variants of: B3
Details: with bacd1_human KCTD13, Q8WZ19

Variant	effect of a mutation on the interaction
E295K	disrupting interaction strength

Variants of: B4
Details: with gfap_human GFAP

Variant	effect of a mutation on the interaction
A249V	with no effect

Variants of: B4
Details: with actn4_human ACTN4, O43707
Sequence of actn4_human ACTN4, O43707 (O43707 whole entry): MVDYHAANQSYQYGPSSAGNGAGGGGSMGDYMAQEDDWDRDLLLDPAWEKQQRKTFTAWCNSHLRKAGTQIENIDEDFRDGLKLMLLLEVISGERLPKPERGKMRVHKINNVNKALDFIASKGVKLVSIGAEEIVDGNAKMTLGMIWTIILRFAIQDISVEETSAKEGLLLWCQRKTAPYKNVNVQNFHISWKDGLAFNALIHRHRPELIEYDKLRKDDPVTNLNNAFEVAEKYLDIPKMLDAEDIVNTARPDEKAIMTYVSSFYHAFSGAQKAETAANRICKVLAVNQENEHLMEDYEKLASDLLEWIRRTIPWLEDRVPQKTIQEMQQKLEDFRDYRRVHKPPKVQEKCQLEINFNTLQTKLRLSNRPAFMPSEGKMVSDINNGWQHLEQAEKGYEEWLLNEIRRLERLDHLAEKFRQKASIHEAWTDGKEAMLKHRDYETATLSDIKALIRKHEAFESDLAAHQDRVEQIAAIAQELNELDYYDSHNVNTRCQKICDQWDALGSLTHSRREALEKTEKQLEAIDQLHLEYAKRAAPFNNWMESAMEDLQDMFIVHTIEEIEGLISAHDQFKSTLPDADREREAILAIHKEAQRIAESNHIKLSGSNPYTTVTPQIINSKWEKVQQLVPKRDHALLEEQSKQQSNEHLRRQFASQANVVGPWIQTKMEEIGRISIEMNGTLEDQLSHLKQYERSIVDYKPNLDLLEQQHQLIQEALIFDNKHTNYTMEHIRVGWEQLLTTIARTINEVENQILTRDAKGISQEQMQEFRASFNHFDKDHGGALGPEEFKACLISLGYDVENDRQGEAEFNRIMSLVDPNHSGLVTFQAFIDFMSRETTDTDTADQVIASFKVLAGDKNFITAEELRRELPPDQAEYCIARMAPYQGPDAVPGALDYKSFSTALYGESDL

Variant	effect of a mutation on the interaction
A249V	with no effect

Variants of: B5
Details: with rt4i1_human RTN4IP1, Q8WWV3

Variant	effect of a mutation on the interaction
R167G	with no effect

Variants of: B6
Details: with tri27_human TRIM27, P14373

Variant	effect of a mutation on the interaction
W337R	disrupting interaction strength

Variants of: B7
Details: with hgs_human HGS

Variant	effect of a mutation on the interaction
H331L	with no effect

Variants of: B8
Details: with pp1g_human PPP1CC

Variant	effect of a mutation on the interaction
Q382E	with no effect
